Patent US20020058253A1

Target: QL9, nonameric variant of p2Ca (2-oxoglutarate dehydrogenase); residues not printed peptide on H-2Ld (mouse)
Experiment: value cited from Manning et al. 1999; single-chain

Kd: 3.2 µM
Substance: 2C TCR
